# Reference: paper PMC4619145 (Virology, 2015)
# T1: DENV-3 envelope glycoprotein E domain III (DIII), wild type, displayed on M13 phage (Dengue virus 3, Thailand/PaH881/1988)
# T1 chain: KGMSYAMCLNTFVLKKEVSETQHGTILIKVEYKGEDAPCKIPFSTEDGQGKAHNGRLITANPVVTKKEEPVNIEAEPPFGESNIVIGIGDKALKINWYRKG
# T2: DENV-2 envelope glycoprotein E domain III (DIII), wild type, displayed on M13 phage (Dengue virus 2, Jamaica/1409/1983)
# T2 chain: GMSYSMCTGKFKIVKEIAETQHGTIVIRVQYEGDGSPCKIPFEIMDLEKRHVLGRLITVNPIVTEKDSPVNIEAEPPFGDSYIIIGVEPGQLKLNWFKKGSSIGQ
# Tests used:
# [1] = biological target: T1, DENV-3 envelope glycoprotein E domain …; assay: ELISA
# [2] = biological target: T2, DENV-2 envelope glycoprotein E domain …; assay: ELISA
binder,measurement,setting,value
"monoclonal antibody 4E11 (IgG) (antibody, V domains shown) VH: VKLLEQSGAELVKPGASVRLSCTASGFNIKDTYMSWVKQRPEQGLEWIGRIDPANGDTKYDPKFQGKATITADTSSNTAYLHLSSLTSGDTAVYYCSRGWEGFAYWGQGTLVTVSA VL: ELVMTQTPASLAVSLGQRATISCRASENVDRYGNSFMHWYQQKAGQPPKLLIYRASNLESGIPARFSGSGSRTDFTLTINPVEADDVATYFCQRSNEVPWTFGGGTKLEIK",binding result,[1],binds
same,binding result,[2],binds
